# Measurements: patent publication US20230391882A1 (NUMAB THERAPEUTICS, published 2023)
# Substitutions are numbered along the chain they refer to.
# B1: PRO2562 (MATCH4) (other)
# chain 1: ALQMTQSPSSLSARVGDRVTIKCQASQSISNYLAWYQQKPGKPPKFLIYDASDLASGVPSRFSGSGSGRDFTLTISSLQPEDFATYYCQQVYDSNNVENVFGCGTKVTVLGGGGGSGGGGSGGGGSGGGGSQSQLVESGGGLVQPGGSLRLSCAVSGFSLSSYAMGWVRQAPGKCLEYIGYISKIGTTYYASWAKGRFTISKDNSKNTVYLQMNSLRAEDTAVYFCARGSSSGGYLDDGFDPWGQGTLVTVSSGGGGSGGGGSEVQLVESGGGLVQPGGSLRLSCAASGFSLSSYDMSWVRQAPGKGLAWIGASYASGPTYYASWAKGRFTISRDNSKNTVYLQMCSLRAEDTATYFCARGGWTGTSHSNIWGQGTLVTVSSGGGSGGGSGGGSGEVQLVESGGGLVQPGGSLRLSCAASGFSLSSYAMNWVRQAPGKCLEWIGHINAGDIAYYATWAKGRFTISRDNSKNTVYLQMNSLRAEDTAVYFCARGAGGFSTGPFKLWGQGTLVTVSS
# chain 2: ALQMTQSPSSLSARVGDRVTIKCQASQSISNYLAWYQQKPGKPPKFLIYDASDLASGVPSRFSGSGSGRDFTLTISSLQPEDFATYYCQQVYDSNNVENVFGCGTKVTVLGGGGGSGGGGSGGGGSGGGGSQSQLVESGGGLVQPGGSLRLSCAVSGFSLSSYAMGWVRQAPGKCLEYIGYISKIGTTYYASWAKGRFTISKDNSKNTVYLQMNSLRAEDTAVYFCARGSSSGGYLDDGFDPWGQGTLVTVSSGGGGSGGGGSAFELTQSPSSLSASVGDRVTITCQASESINSRLAWYQQKPGQPPKLLIYDASDLTSGVPSRFSGSGSGTDFTLTISCLQPEDFATYYCQGYGGSSTTTFGCGTKLTVLGGGSGGSGGSGGSGDIQMTQSPSSLSASVGDRVTITCQSSQSVFSNNYLAWFQQKPGQSPKRLIYSASTLASGVPSRFSGSGSGTDFTLTISSLQPEDFATYYCLGSYACSSADCYVFGTGTKVTVLG
# B2: PRO2000 (biMSLNlow affinity x CD3 x hSA) (other)
# chain 1: DIQMTQSPSSLSASVGDRVTITCQASQNIYSNLAWYQQKPGKAPKLLIYDASDLASGVPSRFSGSGSGTDFTLTISSLQPEDFATYYCQQVRSSSDIDNPFGTGTKVTVLGGGGGSGGGGSGGGGSGGGGSQVQLVESGGGLVQPGGSLRLSCAASGFSLSSYAMGWVRQAPGKGLEWIGYISTINNTYYASWAKGRFTISRDNSKNTVYLQMNSLRAEDTAVYYCAREIRSGWVDYGFSIWGQGTLVTVSSGGGGSGGGGSEVQLVESGGGLVQPGGSLRLSCAASGFSLSSYDMSWVRQAPGKGLAWIGASYASGPTYYASWAKGRFTISRDNSKNTVYLQMNSLRAEDTATYFCARGGWTGTSHSNIWGQGTLVTVSSGGGSGGGSEVQLVESGGGLVQPGGSLRLSCAASGFSFSSSYWICWVRQAPGKCLEWVGCVFTGDGTTYYASWAKGRFTISRDNSKNTVYLQMNSLRAEDTATYFCARPVSVYYYGMDLWGQGTLVTVSS
# chain 2: DIQMTQSPSSLSASVGDRVTITCQASQNIYSNLAWYQQKPGKAPKLLIYDASDLASGVPSRFSGSGSGTDFTLTISSLQPEDFATYYCQQVRSSSDIDNPFGTGTKVTVLGGGGGSGGGGSGGGGSGGGGSQVQLVESGGGLVQPGGSLRLSCAASGFSLSSYAMGWVRQAPGKGLEWIGYISTINNTYYASWAKGRFTISRDNSKNTVYLQMNSLRAEDTAVYYCAREIRSGWVDYGFSIWGQGTLVTVSSGGGGSGGGGSDVVMTQSPSSLSASVGDRVTITCQASQIISSRSAWYQQKPGQPPKLLIYQASKLASGVPSRFSGSGSGTDFTLTISSLQPEDFATYYCQCTYIDSNFGAFGCGTKLTVLGGGSGGSDIQMTQSPSSLSASVGDRVTITCQSSQSVFSNNYLAWFQQKPGQSPKRLIYSASTLASGVPSRFSGSGSGTDFTLTISSLQPEDFATYYCLGSYACSSADCYVFGTGTKVTVLG
# B3: PRO2100 (biMSLNlow affinity x CD3 x hSA) (other)
# chain 1: B2 chain 1 with N186A
# chain 2: B2 chain 2 with N186A
# B4: PRO2566 (MATCH4) (other)
# chain 1: AFELTQSPSSLSASVGDRVTITCQASESINSRLAWYQQKPGQPPKLLIYDASDLTSGVPSRFSGSGSGTDFTLTISSLQPEDFATYYCQGYGGSSTTTFGTGTKLTVLGGGGGSGGGGSGGGGSGGGGSEVQLVESGGGLVQPGGSLRLSCAASGFSLSSYAMNWVRQAPGKGLEWIGHINAGDIAYYATWAKGRFTISRDNSKNTVYLQMNSLRAEDTAVYFCARGAGGFSTGPFKLWGQGTLVTVSSGGGGSGGGGSEVQLVESGGGLVQPGGSLRLSCAASGFSLSSYDMSWVRQAPGKGLAWIGASYASGPTYYASWAKGRFTISRDNSKNTVYLQMNSLRAEDTATYFCARGGWTGTSHSNIWGQGTLVTVSSGGGSGGGSGGGSGQSQLVESGGGLVQPGGSLRLSCAVSGFSLSSYAMGWVRQAPGKCLEYIGYISKIGTTYYASWAKGRFTISKDNSKNTVYLQMNSLRAEDTAVYFCARGSSSGGYLDDGFDPWGQGTLVTVSS
# chain 2: ALQMTQSPSSLSARVGDRVTIKCQASQSISNYLAWYQQKPGKPPKFLIYDASDLASGVPSRFSGSGSGRDFTLTISSLQPEDFATYYCQQVYDSNNVENVFGCGTKVTVLGGGGGSGGGGSGGGGSGGGGSQSQLVESGGGLVQPGGSLRLSCAVSGFSLSSYAMGWVRQAPGKCLEYIGYISKIGTTYYASWAKGRFTISKDNSKNTVYLQMNSLRAEDTAVYFCARGSSSGGYLDDGFDPWGQGTLVTVSSGGGGSGGGGSALQMTQSPSSLSARVGDRVTIKCQASQSISNYLAWYQQKPGKPPKFLIYDASDLASGVPSRFSGSGSGRDFTLTISSLQPEDFATYYCQQVYDSNNVENVFGCGTKVTVLGGGSGGSGGSGGSGDIQMTQSPSSLSASVGDRVTITCQSSQSVFSNNYLAWFQQKPGQSPKRLIYSASTLASGVPSRFSGSGSGTDFTLTISSLQPEDFATYYCLGSYACSSADCYVFGTGTKVTVLG
# B5: PRO2567 (MATCH4) (other)
# chain 1: B4 chain 1
# chain 2: ALQMTQSPSSLSARVGDRVTIKCQASQSISNYLAWYQQKPGKPPKFLIYDASDLASGVPSRFSGSGSGRDFTLTISSLQPEDFATYYCQQVYDSNNVENVFGCGTKVTVLGGGGGSGGGGSGGGGSGGGGSQSQLVESGGGLVQPGGSLRLSCAVSGFSLSSYAMGWVRQAPGKCLEYIGYISKIGTTYYASWAKGRFTISKDNSKNTVYLQMNSLRAEDTAVYFCARGSSSGGYLDDGFDPWGQGTLVTVSSGGGGSGGGGSALQMTQSPSSLSARVGDRVTIKCQASQSISNYLAWYQQKPGKPPKFLIYDASDLASGVPSRFSGSGSGRDFTLTISSLQPEDFATYYCQQVYDSNNVENVFGCGTKVTVLGGGSGGSDIQMTQSPSSLSASVGDRVTITCQSSQSVFSNNYLAWFQQKPGQSPKRLIYSASTLASGVPSRFSGSGSGTDFTLTISSLQPEDFATYYCLGSYACSSADCYVFGTGTKVTVLG
# Experiments:
# Assay in all cases: cell-based or functional assay
# [1] = molecular target: soluble mesothelin (sMSLN) (UniProt Q13421 296-580, limits assumed)
# [2] = molecular target: T1, mesothelin (MSLN) on target cells (H226, MeT-5A) (UniProt Q13421 37-598, limits assumed)
# [3] = molecular target: T1, mesothelin (MSLN) on target cells …; remark: listed apart in the source
# [4] = molecular target: T1, mesothelin (MSLN) on target cells …; remark: listed apart in the source
# [5] = molecular target: T1, mesothelin (MSLN) on target cells …; remark: listed apart in the source
# [6] = molecular target: T1, mesothelin (MSLN) on target cells …; remark: listed apart in the source
# [7] = molecular target: T1, mesothelin (MSLN) on target cells …; remark: listed apart in the source
# [8] = molecular target: T1, mesothelin (MSLN) on target cells …; remark: listed apart in the source
# [9] = molecular target: T1, mesothelin (MSLN) on target cells …; remark: listed apart in the source
# [10] = molecular target: T1, mesothelin (MSLN) on target cells …; remark: listed apart in the source
binder,measurement,setting,value
B1,increase of EC50 for killing high MSLN expressing target cells in the presence of 50 ng/ml sMSLN,[1],≤ 6 fold
same,increase of EC50 for killing high MSLN expressing target cells in the presence of 500 ng/ml sMSLN,[1],≤ 40 fold
same,T-cell driven cytotoxicity assay: EC50 for killing high MSLN expressing target cells against EC50 for killing MeT-5A cells,[2],≥ 25 fold
B2,"EC50 (read off the curve); specific killing of H226 cells, in presence of 50 ng/ml sMSLN",[3],~30 pM
same,"EC50 (read off the curve); specific killing of H226 cells, no sMSLN",[4],~10 pM
same,"EC50 (read off the curve); specific killing of H226 cells, in presence of 500 ng/ml sMSLN",[5],~200 pM
same,"EC50 (read off the curve); activated CD8+ cells (CD69+) with H226 cells, with 50 ng/ml sMSLN",[6],~8 pM
same,"EC50 (read off the curve); activated CD8+ cells (CD69+) with H226 cells, without sMSLN",[7],~2 pM
same,EC50 (read off the curve); specific killing of H226 cells (high MSLN),[8],~0.07 pM
same,"EC50 (read off the curve); activated CD8+ cells (CD69+) with H226 cells, with 500 ng/ml sMSLN",[9],~40 pM
same,EC50 (read off the curve); specific killing of MeT-5A cells (low MSLN),[10],~100 pM
same,decrease of potency of T-cell driven target cell killing in the presence of 500 ng/ml soluble MSLN,[1],17 fold
same,increase of EC50 for killing high MSLN expressing target cells in the presence of 50 ng/ml sMSLN,[1],≤ 6 fold
same,increase of EC50 for killing high MSLN expressing target cells in the presence of 500 ng/ml sMSLN,[1],≤ 40 fold
same,T-cell driven cytotoxicity assay: EC50 for killing high MSLN expressing target cells against EC50 for killing MeT-5A cells,[2],≥ 25 fold
same,specific killing of high MSLN expressing H226 cells by PBMCs in the presence of human serum albumin; killing potency against that of PRO1872,[2],75 fold
B3,decrease of potency of T-cell driven target cell killing in the presence of 500 ng/ml soluble MSLN,[1],17 fold
B4,increase of EC50 for killing high MSLN expressing target cells in the presence of 50 ng/ml sMSLN,[1],≤ 6 fold
same,increase of EC50 for killing high MSLN expressing target cells in the presence of 500 ng/ml sMSLN,[1],≤ 40 fold
same,T-cell driven cytotoxicity assay: EC50 for killing high MSLN expressing target cells against EC50 for killing MeT-5A cells,[2],≥ 25 fold
B5,increase of EC50 for killing high MSLN expressing target cells in the presence of 50 ng/ml sMSLN,[1],≤ 6 fold
same,increase of EC50 for killing high MSLN expressing target cells in the presence of 500 ng/ml sMSLN,[1],≤ 40 fold
same,T-cell driven cytotoxicity assay: EC50 for killing high MSLN expressing target cells against EC50 for killing MeT-5A cells,[2],≥ 25 fold
